The series concerns the target Factor X (FX), P00742.

Factor X (FX), P00742, sequence (P00742 whole entry, looked up): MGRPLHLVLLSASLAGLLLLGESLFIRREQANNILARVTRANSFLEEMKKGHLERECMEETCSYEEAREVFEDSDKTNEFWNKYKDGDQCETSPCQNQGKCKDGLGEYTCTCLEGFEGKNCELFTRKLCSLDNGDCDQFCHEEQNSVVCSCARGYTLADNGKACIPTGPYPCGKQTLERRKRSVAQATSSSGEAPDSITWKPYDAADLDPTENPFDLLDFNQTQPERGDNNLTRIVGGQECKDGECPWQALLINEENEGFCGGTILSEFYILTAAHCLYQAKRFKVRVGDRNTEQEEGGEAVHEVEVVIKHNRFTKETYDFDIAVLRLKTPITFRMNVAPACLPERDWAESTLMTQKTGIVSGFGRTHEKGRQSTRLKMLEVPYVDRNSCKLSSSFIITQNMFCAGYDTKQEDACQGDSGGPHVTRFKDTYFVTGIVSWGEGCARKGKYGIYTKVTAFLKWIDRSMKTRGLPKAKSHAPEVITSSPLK

B1: FIXa D104N/K106S/Y155F/K228N/K247N/N249S (protein)
chain 1: not shown
chain 2: not shown
On to B1, for which the KM is 0.0753 µM and the kcat (Catalytic activity of FIXa variants) was found to be 4.7 s⁻¹.

B2: FIXa Y155F/K228N/K247N/N249S (protein)
chain 1: not shown
chain 2: not shown
B2: the kcat (Catalytic activity of FIXa variants) was 4.3 s⁻¹.

B3: FIXa R318Y/R338E/T412A (protein)
chain 1: not shown
chain 2: not shown
Regarding B3, the kcat (Catalytic activity of FIXa variants) is 7 s⁻¹.

B4: FIXa R318Y/R338E/E410N/T412V (protein)
chain 1: not shown
chain 2: not shown
As to B4, the kcat (Catalytic activity of FIXa variants) was found to be 6.3 s⁻¹.

B5: FIXa-Y155F/R338E/R403E/E410N (protein)
chain 1: not shown
chain 2: not shown
For the protein B5, the kcat was 5.9 s⁻¹.

B6: FIXa-Y155F/R318Y/R338E/R403E (protein)
chain 1: not shown
chain 2: not shown
B6: the KM was 0.0671 µM and the catalytic constant (kcat) was determined as 5.1 s⁻¹.

B7: FIXa-R338E/R403E/E410N (protein)
chain 1: not shown
chain 2: not shown
On to B7, for which the KM stood at 0.0367 µM; the KM for FX activation by FIXa in the Xase complex (FVIIIa/PC-PS/Ca2+), fluorogenic Spectrafluor FXa assay is 0.0455 µM; the kcat worked out at 5.8 s⁻¹.

B8: FIXa R318Y/R338E/R403E/E410N/T412V (protein)
chain 1: not shown
chain 2: not shown
Turning to B8, the kcat (Catalytic activity of FIXa variants) was found to be 7.9 s⁻¹.

B9: FIXa R318Y/R338E/R403E/E410N/T412A (protein)
chain 1: not shown
chain 2: not shown
Turning to B9, the kcat (Catalytic activity of FIXa variants) amounted to 8.4 s⁻¹.

B10: FIXa K228N/K247N/N249S/R318Y/R338E/R403E/E410N (protein)
chain 1: not shown
chain 2: not shown
On to B10, for which the kcat (Catalytic activity of FIXa variants) stood at 6.1 s⁻¹.

Source of the values: patent US11491212.
